Patent US12059458B2, “Peptides and combination of peptides and scaffolds for use in immunotherapy against renal cell carcinoma (RCC) and other cancers” (Immatics Biotechnologies GmbH, priority 2015, dated 2024)

Target: HLA-A*02:01 (Homo sapiens, UniProt P04439, D140Y/D185E/D98H/E176V/E277Q/G131W/G231S/I119V/I121R/I166T/I218V/L300P/L318F/N151K/N90K/P208A/P217A/Q86G/Q94H/R138H/R169H/T345S)
Assay: MHC binding assay (UV-ligand exchange, beta2m ELISA, peptide exchange yield)
Conditions: binding to HLA-A*02:01 ranged by peptide exchange yield, β2m ELISA
Text: Candidate peptides for T cell based therapies according to the present invention were further tested for their MHC binding capacity (affinity). The individual peptide-MHC complexes were produced by UV-ligand exchange, where a UV-sensitive peptide is cleaved upon UV-irradiation, and exchanged with the peptide of interest as analyzed. Only peptide candidates that can effectively bind and stabilize the peptide-receptive MHC molecules prevent dissociation of the MHC complexes. To determine the yield of the exchange reaction, an ELISA was performed based on the detection of the light chain (β2m) of stabilized MHC complexes. The assay was performed as generally described in Rodenko et al. (Rodenko et al., 2006).
96 well MAXISorp plates (NUNC) were coated over night with 2 ug/ml streptavidin in PBS at room temperature, washed 4× and blocked for 1 h at 37° C. in 2% BSA containing blocking buffer. Refolded HLA-A*02:01/MLA-001 monomers served as standards, covering the range of 15-500 ng/ml. Peptide-MHC monomers of the UV-exchange reaction were diluted 100 fold in blocking buffer. Samples were incubated for 1 h at 37° C., washed four times, incubated with 2 ug/ml HRP conjugated anti-β2m for 1h at 37° C., washed again and detected with TMB solution that is stopped with […]. Absorption was measured at 450 nm. Candidate peptides that show a high exchange yield (preferably higher than 50%, most preferred higher than 75%) are generally preferred for a generation and production of antibodies or fragments thereof, and/or T cell receptors or fragments thereof, as they show sufficient avidity to the MHC molecules and prevent dissociation of the MHC complexes.

Substance | Peptide exchange (MHC class I binding score)
4 (FLSQDIITV; listed as Homo sapiens) [compound 4] | +++ (≥50 = +++)
10 (KLLQNNYGL; listed as Homo sapiens) [compound 10] | ++ (≥20% = ++)
11 (FIQTEAPKEV; listed as Homo sapiens) [compound 11] | ++ (≥20% = ++)
12 (ALDPSGNQLI; listed as Homo sapiens) [compound 12] | ++ (≥20% = ++)
14 (ALLTETIFL; listed as Homo sapiens) [compound 14] | ++ (≥20% = ++)
17 (ILAQQVHAL; listed as Homo sapiens) [compound 17] | +++ (≥50 = +++)
21 (RLIQGDQILSV; listed as Homo sapiens) [compound 21] | ++ (≥20% = ++)
24 (FTLGTTVFL; listed as Homo sapiens) [compound 24] | +++ (≥50 = +++)
27 (SLSDLLVSL; listed as Homo sapiens) [compound 27] | +++ (≥50 = +++)
28 (FIADLVVGL; listed as Homo sapiens) [compound 28] | ++ (≥20% = ++)
33 (FIADVVEKI; listed as Homo sapiens) [compound 33] | ++ (≥20% = ++)
37 (VLAPVILML; listed as Homo sapiens) [compound 37] | ++ (≥20% = ++)
42 (VILDTGTIQL; listed as Homo sapiens) [compound 42] | ++ (≥20% = ++)
44 (ALFSFVTAL; listed as Homo sapiens) [compound 44] | +++ (≥50 = +++)
45 (ALLGIPLTL; listed as Homo sapiens) [compound 45] | +++ (≥50 = +++)
49 (VLIVEVPGV; listed as Homo sapiens) [compound 49] | +++ (≥50 = +++)
50 (SLSDHIVLL; listed as Homo sapiens) [compound 50] | ++ (≥20% = ++)
53 (FLLEIRQTL; listed as Homo sapiens) [compound 53] | ++ (≥20% = ++)

Substance | Peptide exchange (MHC class I binding score)
58 (FLVDFEQSHL; listed as Homo sapiens) [compound 58] | ++++ (≥75% = ++++)
59 (SLKNNVVSV; listed as Homo sapiens) [compound 59] | +++ (≥50 = +++)
60 (ILWKDIEYV; listed as Homo sapiens) [compound 60] | +++ (≥50 = +++)
62 (VLAGPAFLVQL; listed as Homo sapiens) [compound 62] | +++ (≥50 = +++)
63 (GLIEDHFDVTV; listed as Homo sapiens) [compound 63] | ++ (≥20% = ++)
64 (LLAASVALA; listed as Homo sapiens) [compound 64] | ++ (≥20% = ++)
65 (IIYGGSVTGA; listed as Homo sapiens) [compound 65] | ++ (≥20% = ++)
66 (TLLKTIIKV; listed as Homo sapiens) [compound 66] | ++ (≥20% = ++)
67 (LLDVLAPLV; listed as Homo sapiens) [compound 67] | ++ (≥20% = ++)
69 (ILADLLPSL; listed as Homo sapiens) [compound 69] | ++ (≥20% = ++)
70 (SLTALRLLL; listed as Homo sapiens) [compound 70] | ++ (≥20% = ++)
71 (ALDGHLYAV; listed as Homo sapiens) [compound 71] | +++ (≥50 = +++)
75 (FLIKSINLV; listed as Homo sapiens) [compound 75] | +++ (≥50 = +++)
78 (ALLDTVVQA; listed as Homo sapiens) [compound 78] | ++ (≥20% = ++)
79 (ALADIVWRA; listed as Homo sapiens) [compound 79] | +++ (≥50 = +++)
80 (KLASMLETL; listed as Homo sapiens) [compound 80] | +++ (≥50 = +++)
83 (IQWSIVPEV; listed as Homo sapiens) [compound 83] | +++ (≥50 = +++)

Next, values leading:

Peptide exchange (MHC class I binding score) | Substance
++ (≥20% = ++) | 5 (YLYPNLTRL; listed as Homo sapiens) [compound 5]
++ (≥20% = ++) | 8 (GLASFKSFL; listed as Homo sapiens) [compound 8]
+++ (≥50 = +++) | 13 (KIMAQILTV; listed as Homo sapiens) [compound 13]
++ (≥20% = ++) | 19 (LLDPGSLQL; listed as Homo sapiens) [compound 19]
+++ (≥50 = +++) | 23 (YIQEVVQYI; listed as Homo sapiens) [compound 23]
++ (≥20% = ++) | 25 (LLVPAHLVAA; listed as Homo sapiens) [compound 25]
++ (≥20% = ++) | 30 (QLFYTKIFL; listed as Homo sapiens) [compound 30]
+++ (≥50 = +++) | 31 (VLFGLDPAVIKV; listed as Homo sapiens) [compound 31]
++ (≥20% = ++) | 35 (VLHSLQTQL; listed as Homo sapiens) [compound 35]
+++ (≥50 = +++) | 38 (VLLDTILQL; listed as Homo sapiens) [compound 38]
+++ (≥50 = +++) | 39 (YLLNLNHLGL; listed as Homo sapiens) [compound 39]
+++ (≥50 = +++) | 40 (YIQEHLLQI; listed as Homo sapiens) [compound 40]
++ (≥20% = ++) | 41 (GLLKTLQKL; listed as Homo sapiens) [compound 41]
+++ (≥50 = +++) | 43 (YLKDELDEL; listed as Homo sapiens) [compound 43]
+++ (≥50 = +++) | 46 (GLSEVLVQI; listed as Homo sapiens) [compound 46]
+++ (≥50 = +++) | 47 (TLAEVRAVQEI; listed as Homo sapiens) [compound 47]
++ (≥20% = ++) | 48 (VVASNIMEV; listed as Homo sapiens) [compound 48]

Peptide exchange (MHC class I binding score) | Substance
+++ (≥50 = +++) | 51 (NLWPMILTL; listed as Homo sapiens) [compound 51]
++ (≥20% = ++) | 52 (SILDAVQRV; listed as Homo sapiens) [compound 52]
++ (≥20% = ++) | 54 (ALVAKGLVQA; listed as Homo sapiens) [compound 54]
++ (≥20% = ++) | 55 (YLALILPVL; listed as Homo sapiens) [compound 55]
+++ (≥50 = +++) | 56 (ILMDFSNSM; listed as Homo sapiens) [compound 56]
++ (≥20% = ++) | 57 (SLQKEILYL; listed as Homo sapiens) [compound 57]
++ (≥20% = ++) | 61 (SLMGILLRI; listed as Homo sapiens) [compound 61]
++ (≥20% = ++) | 68 (YVLTQPPSV; listed as Homo sapiens) [compound 68]
++ (≥20% = ++) | 72 (YSLEKVFGI; listed as Homo sapiens) [compound 72]
+++ (≥50 = +++) | 73 (GLDGIPFTV; listed as Homo sapiens) [compound 73]
+++ (≥50 = +++) | 74 (GLFHKQVTV; listed as Homo sapiens) [compound 74]
++ (≥20% = ++) | 76 (VLADDHLIEV; listed as Homo sapiens) [compound 76]
++ (≥20% = ++) | 77 (SLIKHKIML; listed as Homo sapiens) [compound 77]
++ (≥20% = ++) | 81 (SLLPALPKL; listed as Homo sapiens) [compound 81]
+++ (≥50 = +++) | 82 (SLLQATDFMSL; listed as Homo sapiens) [compound 82]
++ (≥20% = ++) | 84 (YLMDEGAHL; listed as Homo sapiens) [compound 84]
